Reference: patent US20110223107A1 (ALETHIA BIOTHERAPEUTICS, published 2011)

T1: monomeric recombinant KAAG1 (Homo sapiens (Human), UniProt Q9UBP8 1-84, limits assumed)
T1 construct: Analyte of the Biacore experiment
T1 sequence: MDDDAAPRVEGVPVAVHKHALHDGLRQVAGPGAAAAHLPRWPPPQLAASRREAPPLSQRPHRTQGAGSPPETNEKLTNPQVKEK

T2: recombinant Fc-KAAG1 fusion protein (full-length KAAG1) (human, UniProt Q9UBP8 1-84, biotinylated with NHS-biotin (sites not given))
T2 construct: also called recombinant human KAAG1; not shown: human Fc domain encoded by expression plasmid pYD5; vector-encoded residues between the Fc and the BamHI cloning site of pYD5
T2 sequence: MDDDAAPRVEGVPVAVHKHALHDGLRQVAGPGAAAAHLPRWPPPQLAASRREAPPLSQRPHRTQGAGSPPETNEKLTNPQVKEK


How the values were obtained:
[1] = biological target: T1, monomeric recombinant KAAG1; assay: SPR (Biacore): antibody captured on immobilised anti-human Fc, monomeric recombinant KAAG1 injected, global 1:1 fit; average KD; humanized light + humanized heavy chain, 'HH'
Procedure: (§1) More precise measurements were conducted using Surface Plasmon Resonance (SPR) in a Biacore instrument. Kinetic analysis was used to compare the affinity of the chimeric 3D3 with the h3D3 as well as with hybrid antibodies encompassing different permutations of the light and heavy chains (see FIG. 18B). Briefly, anti-human Fc was immobilized on the Biacore sensor chip and chimeric or h3D3 was captured on the chip. Different concentrations of monomeric recombinant KAAG1 were injected and the data were globally fitted to a simple 1:1 model to determine the kinetic parameters of the interaction.

[2] = biological target: T1, monomeric recombinant KAAG1; assay: SPR (Biacore), antibody captured by anti-human Fc, 1:1 fit
Procedure: as §1

[3] = biological target: T2, recombinant Fc-KAAG1 fusion protein …; assay: ELISA on recombinant Fc-KAAG1
Procedure: The 96-well master plate of monoclonal preparations contained different concentrations of purified anti-KAAG1 Fabs in each well. A second stock master plate was prepared by diluting the Fabs to a final concentration of 10 μg/ml from which all subsequent dilutions were performed for ELISA measurements. To carry out the binding of Fc-KAAG1 to the monoclonal preparations, the Fc-KAAG1 was biotinylated with NHS-biotin (Pierce, Rockford, Ill.) and 10 ng/well was coated in a streptavidin 96-well plate. One nanogram of each Fab monoclonal preparation was added to each well and incubated at room temperature for 30 minutes. Bound antibody was detected with HRP-conjugated mouse anti-kappa light chain antibody in the presence of TMB liquid substrate (Sigma-Aldrich Canada Ltd., Oakville, ON) and readings were conducted at 450 nm in microtiter plate reader.
Since an antibody harboring effector functions was required, the h3D3 was assembled as a human IgG₁. ELISA-based assays were performed to directly compare the ability of the h3D3 […]. The methods used to perform these tests were as described in Example 3 using recombinant Fc-KAAG1.

[4] = biological target: T1, monomeric recombinant KAAG1; assay: SPR (Biacore): antibody captured on immobilised anti-human Fc, monomeric recombinant KAAG1 injected, global 1:1 fit; average KD; humanized light + chimeric heavy chain, 'HC'
Procedure: as §1

[5] = biological target: T1, monomeric recombinant KAAG1; assay: SPR (Biacore): antibody captured on immobilised anti-human Fc, monomeric recombinant KAAG1 injected, global 1:1 fit; average KD; chimeric light + humanized heavy chain, 'CH'
Procedure: as §1

Row | Binder | Kd [1] [nM] | Ka [2] [M⁻¹] | koff [2] [s⁻¹] | kon [2] [M⁻¹ s⁻¹] | EC50 (read off the curve) [3] [mg/L] | Kd [4] [nM] | Kd [5] [nM]
1 | humanized 3D3 anti-KAAG1 antibody (human IgG1) (antibody, V domains shown, The leader residues before them are left out; also called h3D3; HH) VH: EVQLVQSGAEVKKPGASVKVSCKASGYIFTDYEIHWVRQAPGQGLEWMGVIDPETGNTAFNQKFKGRVTITADTSTSTAYMELSSLTSEDTAVYYCMGYSDYWGQGTLVTVSS VL: DIVMTQSPDSLAVSLGERATINCKSSQSLLNSNFQKNFLAWYQQKPGQPPKLLIYFASTRESSVPDRFSGSGSGTDFTLTISSLQAEDVAVYYCQQHYSTPLTFGQGTKLEIKR | 0.439 | 2.28e+09 | 0.00111 | 2.53e+06 | ~0.1 | – | –
2 | 3D3 hybrid antibody: humanized light chain expressed with the chimeric heavy chain (antibody, V domains shown, also called HC) VH: EVQLQQSVAELVRPGASVTLSCKASGYIFTDYEIHWVKQTPVHGLEWIGVIDPETGNTAFNQKFKGKATLTADISSSTAYMELSSLTSEDSAVYYCMGYSDYWGQGTTLTVSS VL: DIVMTQSPDSLAVSLGERATINCKSSQSLLNSNFQKNFLAWYQQKPGQPPKLLIYFASTRESSVPDRFSGSGSGTDFTLTISSLQAEDVAVYYCQQHYSTPLTFGQGTKLEIKR | – | 3.24e+09 | 0.00073 | 2.36e+06 | – | 0.309 | –
3 | 3D3 hybrid antibody: chimeric light chain expressed with the humanized heavy chain (antibody, human IgG1, V domains shown) VH: EVQLVQSGAEVKKPGASVKVSCKASGYIFTDYEIHWVRQAPGQGLEWMGVIDPETGNTAFNQKFKGRVTITADTSTSTAYMELSSLTSEDTAVYYCMGYSDYWGQGTLVTVSS VL: DIVMTQSPSSLAVSIGQKVTMNCKSSQSLLNSNFQKNFLAWYQQKPGQSPKLLIYFASTRESSIPDRFIGSGSGTDFTLTISSVQAEDLADYFCQQHYSTPLTFGAGTKLELKA | – | 1.98e+09 | 0.00111 | 2.2e+06 | – | – | 0.505
